# Experimental data as given in patent US6423503.
# Target: α1antichymotrypsin (ACT) (UniProt P01011)
# Sequence (P01011 24-423): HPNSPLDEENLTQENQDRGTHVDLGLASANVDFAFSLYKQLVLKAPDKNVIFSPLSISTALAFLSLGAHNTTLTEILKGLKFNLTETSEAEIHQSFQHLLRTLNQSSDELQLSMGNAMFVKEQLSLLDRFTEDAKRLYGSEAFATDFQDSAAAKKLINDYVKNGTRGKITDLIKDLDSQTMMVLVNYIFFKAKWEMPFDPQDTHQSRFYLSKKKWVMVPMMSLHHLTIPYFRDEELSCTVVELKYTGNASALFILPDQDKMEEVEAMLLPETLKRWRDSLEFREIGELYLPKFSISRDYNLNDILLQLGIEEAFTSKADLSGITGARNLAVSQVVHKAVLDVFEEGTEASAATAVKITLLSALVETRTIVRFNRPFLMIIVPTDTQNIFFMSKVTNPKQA
substance,measurement,value
"prostate-specific antigen (PSA), mature form",cleavage of ACT (HIC-HPLC peak 1),Peak 1 is inactive ACT which has been cleaved by PSA
